Laboratory results from publication PMC5029526.

Biological target: HdaB-dsA (donor strand complemented HdaB: HdaB residues 1-119, 14-residue linker, HdaA residues 1-10) (Escherichia coli (enteroaggregative, EAEC))
Assay: SEC; Superdex-75 gel filtration in 50 mM NaOAc pH 5.0, 200 mM NaCl, last step of purification after refolding; monomer (17.5 kDa) and dimer (35 kDa) peaks

HdaB-dsA (donor strand complemented HdaB: HdaB residues 1-119, 14-residue linker, HdaA residues 1-10)
stoichiometry N: 2
